The results in this text go back to the supplement of paper PMC10567573.

± gives the standard deviation.

A short description of the data set: protein stability index of a GFP-peptide fusion (GPS, HEK-293T) (PSI 1-6); higher = more stable. The note with it: c terminus: a fixed tail appended.
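Note: 24-mer peptide tiles fused after GFP, lentivirally expressed, FACS-sorted into six equal bins by GFP/DsRed ratio, decoded by Illumina sequencing, PSI is the read-weighted mean bin number.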

SLELPKAIQDQLPRLQQLLKTLEE [FANCE]: the protein stability index (treatment: DMSO) is 2.66 ± 0.32 and the protein stability index (treatment: MLN4924 1 uM, 8 h) came to 2.85 ± 0.24.

For the sequence LLESLNQQRLQGQLCDVSIRVQGR [ZBTB22], the protein stability index amounted to 2.59 ± 0.21 (treatment: DMSO) and 2.67 ± 0.21 (treatment: MLN4924 1 uM, 8 h).

Regarding NHQKDLFRRTDGRCLIWGRKPKVI [DHCR7], the protein stability index worked out at 2.66 ± 0.27 (treatment: DMSO) and 2.74 ± 0.3 (treatment: MLN4924 1 uM, 8 h).

With RPALAQQAQGARAGGSARRPDTGD [GMCL1], the protein stability index reads like this: (treatment: DMSO) 5.28 ± 0.19; (treatment: MLN4924 1 uM, 8 h) 5.33 ± 0.13.

With MLGKYGSSLEFTELLTLVNRKVSQ [CASP6], the protein stability index was found to be 2.29 ± 0.23 (treatment: DMSO) and 2.34 ± 0.43 (treatment: MLN4924 1 uM, 8 h).

The sequence WSRLEEFDVFSPKQDLVPGSPDDS [DLC1] yielded a protein stability index (treatment: DMSO) of 4.45 ± 0.27 and a protein stability index (treatment: MLN4924 1 uM, 8 h) of 4.87 ± 0.38.

For PVAAQFTSEGTTLSGVDLELVGSG [FCHO1], the protein stability index was found to be 4.54 ± 0.17 (treatment: DMSO) and 4.57 ± 0.24 (treatment: MLN4924 1 uM, 8 h).

The sequence HGEELRVSARSREGRGGRPGSTRP [HAGHL] gave a protein stability index (treatment: DMSO) of 4.92 ± 0.2 and a protein stability index (treatment: MLN4924 1 uM, 8 h) of 4.93 ± 0.16.

For the sequence QPQALLVDGDQSKILISGLEPSTP [TNXB], the protein stability index by setting is: (treatment: DMSO) 4.73 ± 0.31; (treatment: MLN4924 1 uM, 8 h) 4.69 ± 0.23.

KHGFSWAVPKFMKRIKVPDYKDRS [DLC1] had a protein stability index (treatment: DMSO) of 2.56 ± 0.08 and a protein stability index (treatment: MLN4924 1 uM, 8 h) of 2.94 ± 0.31.

In the case of KTDFGSCLLQPPSCPNGMSAENGL [DLC1], the protein stability index runs as follows: (treatment: DMSO) 3.94 ± 0.14; (treatment: MLN4924 1 uM, 8 h) 3.87 ± 0.19.

PYVCHAELNAIMNKNSTDVKGCSM [DCTD]: the protein stability index is 3.41 ± 0.22 (treatment: DMSO) and 3.43 ± 0.33 (treatment: MLN4924 1 uM, 8 h).

AESLKGKLEEERAKLHDVELHQVA [GNB5]: the protein stability index was determined as 5.02 ± 0.33 (treatment: DMSO) and 5.23 ± 0.29 (treatment: MLN4924 1 uM, 8 h).

Consider VDSKPELQRVLEHRRRNQLIKKKK [FAM107A], for which the protein stability index runs as follows: (treatment: DMSO) 4.54 ± 0.2; (treatment: MLN4924 1 uM, 8 h) 4.61 ± 0.39.

Regarding RVMKVEDREGPSSSKLVTKKAPQP [HDAC6], the protein stability index is 4.93 ± 0.26 (treatment: DMSO) and 5.14 ± 0.077 (treatment: MLN4924 1 uM, 8 h).

Turning to ELTSVTAWMLCKLLDKAGVPPGVV [ALDH8A1], the protein stability index was 2.98 ± 0.42 (treatment: DMSO) and 2.69 ± 0.52 (treatment: MLN4924 1 uM, 8 h).

In the case of FLRGPSGPRFGPRNDKIKHVQNQV [VAMP4], the protein stability index (treatment: DMSO) is 2.93 ± 0.27 and the protein stability index (treatment: MLN4924 1 uM, 8 h) amounted to 3.39 ± 0.31.

For TENSALQLQVTEREEVRGRELTGL [LMNB1], the protein stability index came out at 5.14 ± 0.2 (treatment: DMSO) and 5.13 ± 0.28 (treatment: MLN4924 1 uM, 8 h).

In the case of RYVFEAVIRWIAHDTEIRKVHMKD [GAN], the protein stability index was found to be 2.74 ± 0.84 (treatment: DMSO) and 2.4 ± 0.65 (treatment: MLN4924 1 uM, 8 h).

As for PAEESKPAPSPHEEPCSPGLLQDQ [CBY2], the protein stability index by setting is: (treatment: DMSO) 5.33 ± 0.27; (treatment: MLN4924 1 uM, 8 h) 5.14 ± 0.31.

Take HVSYRELGACVRTAVAQGGWRSLW [SLC25A39]: the protein stability index by setting is: (treatment: DMSO) 2.01 ± 0.19; (treatment: MLN4924 1 uM, 8 h) 2.13 ± 0.2.

For the sequence GMSYLYASWMYQLQHGDQLSICFT [TEX19], the protein stability index came to 3 ± 0.39 (treatment: DMSO) and 2.92 ± 0.42 (treatment: MLN4924 1 uM, 8 h).

Turning to EWDAMGGKVQDIKAREKDGKGRTA [FSD1], the protein stability index was found to be 5.16 ± 0.21 (treatment: DMSO) and 5.35 ± 0.14 (treatment: MLN4924 1 uM, 8 h).

As to ITHTREEQPHGRSRRREQSSSRNS [ZNF8], the protein stability index turned out to be 5.33 ± 0.37 (treatment: DMSO) and 5.41 ± 0.13 (treatment: MLN4924 1 uM, 8 h).

Take AVTPAGVVNKYQINGLQAWLLTHL [DHCR7]: the protein stability index reads like this: (treatment: DMSO) 2.19 ± 0.23; (treatment: MLN4924 1 uM, 8 h) 2.15 ± 0.16.

LTGLFKGDKCHSLVGKPKIFIIQA [CASP6]: the protein stability index is 2.83 ± 0.46 (treatment: DMSO) and 2.93 ± 0.65 (treatment: MLN4924 1 uM, 8 h).

Regarding ALAGYTGSGPIQLWQFLLELLTDK [ETS1], the protein stability index is 2.35 ± 0.13 (treatment: DMSO) and 2.48 ± 0.31 (treatment: MLN4924 1 uM, 8 h).

Take KKIPIISNAMLVGDKLKFLSMLLT [ACSBG2]: the protein stability index is, setting by setting: (treatment: DMSO) 2.3 ± 0.79; (treatment: MLN4924 1 uM, 8 h) 2.47 ± 0.6.

For the sequence QNPRQVAQSEAEKKLKKDDKKKEL [ZC3H15], the protein stability index (treatment: DMSO) came to 5.52 ± 0.22 and the protein stability index (treatment: MLN4924 1 uM, 8 h) turned out to be 5.58 ± 0.19.
